# PMC7954794, “Protein context shapes the specificity of SH3 domain-mediated interactions in vivo” (Nature Communications, 2021)
# B1: Sdc25 (protein, UniProt P0CF34 1-1048, looked up)
# Putative truncated guanine …: MPITSSPDLFYLNDCDVVYWYDLTRLVCHYVNLTERDLLANEREKFLTSLDLLTAQITYVYMLFRNLRLVEDSFKKTLKKLIYTLSRFSINANIWFHSTLFEEREAIASQKDPERRSPLLQSILGTFQKFHFLLRLLHFLSNPNELTILPQLTPRFFKDSFNTISWNNPFLRKRLNQHMSHDLPRQMIKAVAGASGIVAENIDEIPASKQGTSCSSETSHHSPSAPFQRRRRGTIFSNVSGSSDESDTIWSKRKKPYPLNEETLSLVRARKKQLDGKLKQMIKSANEYLSNTANFSKMLNFEMNFKTYEEVSGTIPIIDILENLDLTIFLNLRELGDENRVFDEDVAIDDEDEEFLKHSLSSLSYILSDYFNMKQYFHDVVVKFIIVAQHLTLEDPFVFSPMQNDLPTGYYEPMKPSSLNLDNAKDKKNGSQNTDIQEEEDEYEPDPDSLILFHNLINQDSDFNDLKFFNLAHVFKKSCDDYFDVLKLAIEFVNQLILERENLLNYAARMMKNNITELLLRGEEGYGSYDGGETAEKSDTNAVYADSDTKDNDEWRDSQVKLPRYLQREYDSELIWGSNNRIKGGSKHALISYLTDNEKKDLFFDITFLITFRSIFTTTEFLSYLISQYNLDPPEDLCFEEYNEWVTKKLIPVKCRVVEIMTTFFKQYWFLGYDEPDLATLNLDYFAQVAIKENITGSVELLKEVNQKFKHGNIQEATAPMKTLDQQICQDHYSGTLYSTTESILAVDPVLFATQLTILEHEIYCEITIFDCLQKIWKNKYTKSYGASPGLNEFISFANKLTNFISYSVVKEADKSKRAKLLSHFIFIAEYCRKFNNFSSMTAIISALYSSPIYRLEKTWQAVIPQTRDLLQSLNKLMDPKKNFINYRNELKSLHSAPCVPFFGVYLSDLTFTDSGNPDYLVLEHGLKGVHDEKKYINFNKRSRLVDILQEIIYFKKTHYDFTKDRTVIECISNSLENIPHIEKQYQLSLIIEPKPRKKVVPNSNSNNKSQEKSRDDQTDEGKTSTKKDRFPKFQLHKTKKKAPKVSK
# B2: Pin3 (protein, UniProt Q06449 2-215, looked up)
# [PSI+] inducibility protein 3: SASLINRSLTNIRTELDFLKGSNVISNDVYDQINKSLPAKWDPANAPRNASPASLEYVEALYQFDPQQDGDLGLKPGDKVQLLEKLSPEWYKGSCNGRTGIFPANYVKPAFSGSNGPSNLPPPPQYKAQELQQIPTQNSAASSYQQQPFPPPSTNYYQQPQQQPQQAPPPQQQQQQQQHQSSHSHLKSFGSKLGNAAIFGAGASIGSDIVNNIF
# B3: Abp1-1 (protein, UniProt P15891 2-592, looked up)
# Actin-binding protein: ALEPIDYTTHSREIDAEYLKIVRGSDPDTTWLIISPNAKKEYEPESTGSSFHDFLQLFDETKVQYGLARVSPPGSDVEKIIIIGWCPDSAPLKTRASFAANFAAVANNLFKGYHVQVTARDEDDLDENELLMKISNAAGARYSIQTSSKQQGKASTPPVKKSFTPSKSPAPVSKKEPVKTPSPAPAAKISSRVNDNNDDDDWNEPELKERDFDQAPLKPNQSSYKPIGKIDLQKVIAEEKAKEDPRLVQKPTAAGSKIDPSSDIANLKNESKLKRDSEFNSFLGTTKPPSMTESSLKNDDDKVIKGFRNEKSPAQLWAERKAKQNSGNAETKAEAPKPEVPEDEPEGEPDVKDLKSKFEGLAASEKEEEEMENKFAPPPKKSEPTIISPKPFSKPQEPVKAEEAEQPKTDYKKIGNPLPGMHIEADNEEEPEENDDDWDDDEDEAAQPPLPSRNVASGAPVQKEEPEQEEIAPSLPSRNSIPAPKQEEAPEQAPEEEIEEEAEEAAPQLPSRSSAAPPPPPRRATPEKKPKENPWATAEYDYDAAEDNELTFVENDKIINIEFVDDDWWLGELEKDGSKGLFPSNYVSLGN
# B4: Ysc84 (protein, UniProt P32793 1-468, looked up)
# Protein YSC84: MGINNPIPRSLKSETKKAAKVLRSFVKPNQVFGADQVIPPYVLKRAKGLAIITVLKAGFLFSGRAGSGVIVARLKDGTWSAPSAIAMAGAGAGGMVGVELTDFVFILNSEEAVRSFSEFGTITLGGNVSVSAGPLGRSAEAAASASTGGVSAVFAYSKSKGLFAGVSVEGSAILERREANRKFYGDNCTSKMILSGRVKVPPAADPLLRILESRAFNFTRHDHDDNASGDDFYDDGQYSDNTSHYYDDIPDSFDSTDESSTRPNTRSSRRRGMSLGSRSRYDDDYDDDGYGRGRGYGDFDSEDEDYDYGRSPNRNSSRNRGPQIDRGTKPRANTRWEDDLYDRDTEYSRPNHSGRDYDNTRGNRRGYGRERGYSLGHGPTHPSNMSNVDDLSHKMSKTGLGNESTATNSATPTAVALYNFAGEQPGDLAFKKGDVITILKKSDSQNDWWTGRTNGKEGIFPANYVRVS
# B5: Boi1 (protein, UniProt P38041 1-980, looked up)
# BEM1-interacting protein 1: MSLEGNTLGKGAKSFPLYIAVNQYSKRMEDELNMKPGDKIKVITDDGEYNDGWYYGRNLRTKEEGLYPAVFTKRIAIEKPENLHKSPTQESGNSGVKYGNLNDSASNIGKVSSHQQENRYTSLKSTMSDIDKALEELRSGSVEQEVSKSPTRVPEVSTPQLQDEQTLIQEKTRNEENTTHDSLFSSTADLNLSSESLKNISKSNISTKSLEPSSESVRQLDLKMAKSWSPEEVTDYFSLVGFDQSTCNKFKEHQVSGKILLELELEHLKELEINSFGIRFQIFKEIRNIKSAIDSSSNKLDADYSTFAFENQAAQLMPAATVNRDEIQQQISSKCNKLSSESSDRKSSSVTTELQRPSSVVVNPNFKLHDPAEQILDMTEVPNLFADKDIFESPGRAPKPPSYPSPVQPPQSPSFNNRYTNNNARFPPQTTYPPKNKNPTVYSNGLIPNSSTSSDNSTGKFKFPAMNGHDSNSRKTTLTSATIPSINTVNTDESLPAISNISSNATSHHPNRNSVVYNNHKRTESGSSFVDLFNRISMLSPVKSSFDEEETKQPSKASRAVFDSARRKSSYGHSRDASLSEMKKHRRNSSILSFFSSKSQSNPTSPTKQTFTIDPAKMTSHSRSQSNSYSHARSQSYSHSRKHSLVTSPLKTSLSPINSKSNIALAHSETPTSSNNKEAVSQPSEGKHKHKHKHKSKHKHKNSSSKDGSSEEKSKKKLFSSTKESFVGSKEFKRSPSELTQKSTKSILPRSNAKKQQTSAFTEGIRSITAKESMQTADCSGWMSKKGTGAMGTWKQRFFTLHGTRLSYFTNTNDEKERGLIDITAHRVLPASDDDRLISLYAASLGKGKYCFKLVPPQPGSKKGLTFTEPRVHYFAVENKSEMKAWLSAIIKATIDIDTSVPVISSYATPTIPLSKAQTLLEEARLQTQLRDAEEEEGRDQFGWDDTQNKRNSNYPIEQDQFETSDYLESSAFEYPGGRL
# B6: Pex13 (protein, UniProt P80667 1-386, looked up)
# Peroxisomal membrane protein …: MSSTAVPRPKPWETSASLEEPQRNAQSLSAMMTSNQQDSRPTEESNNSNSASESAPEVLPRPAALNSSGTYGESNTIPGIYGNSNYGIPYDNNPYSMNSIYGNSIGRYGYGGSYYGNNYGSFYGGGYGAGAGYGMNNGSGLGESTKATFQLIESLIGAVTGFAQMLESTYMATHNSFFTMISVAEQFGNLKEMLGSFFGIFAIMKFLKKILYRATKGRLGIPPKNFAESEGSKNKLIEDFQKFNDSGTINSNEKATRRKISWKPLLFFLMAVFGFPYLLNKFITKLQTSGTIRASQGNGSEPIDPSKLEFARALYDFVPENPEMEVALKKGDLMAILSKKDPLGRDSDWWKVRTKNGNIGYIPYNYIEIIKRRKKIEHVDDETRTH
# B7: Sho1 (protein, UniProt P40073 1-367, looked up)
# High osmolarity signaling …: MSISSKIRPTPRKPSRMATDHSFKMKKFYADPFAISSISLAIVSWVIAIGGSISSASTNESFPRFTWWGIVYQFLIICSLMLFYCFDLVDHYRIFITTSIAVAFVYNTNSATNLVYADGPKKAAASAGVILLSIINLIWILYYGGDNASPTNRWIDSFSIKGIRPSPLENSLHRARRRGNRNTTPYQNNVYNDAIRDSGYATQFDGYPQQQPSHTNYVSSTALAGFENTQPNTSEAVNLHLNTLQQRINSASNAKETNDNSNNQTNTNIGNTFDTDFSNGNTETTMGDTLGLYSDIGDDNFIYKAKALYPYDADDDDAYEISFEQNEILQVSDIEGRWWKARRANGETGIIPSNYVQLIDGPEEMHR
# Test system: Abp1 (1xFLAG)
# Assay: Western blot expression level of Abp1 SH3-swapped baits (Fig. S2A-B)
# Assay type: cell-based, Saccharomyces cerevisiae
# Set-up: Flag (2 bands): unit not given here
# Settings: Flag signal relative to Abp1 WT (Abp1-1 to Abp1-4 = 1); sheet FigS2A-B
# Procedure: Precultures of yeast cells expressing baits fused with the DHFR F[1,2]-FLAG were grown overnight at 30 °C with agitation in synthetic complete medium. The next day, cells were expanded in synthetic complete medium to reach their exponential phase (OD600 of around 1.0), pelleted, and frozen at −80 °C. The equivalent of fifty OD600 of cells was resuspended in ice-cold yeast lysis buffer (10 mM Tris-HCl pH 7.4, 150 mM NaCl, 0.5 mM EDTA (Millipore Sigma), 1% Triton X-100 (Millipore Sigma), and one cOmplete Mini Protease Inhibitor Cocktail (Millipore Sigma) per 10 mL) with […] glass beads (Millipore Sigma) and disrupted at 4 °C by 10 cycles of 2 min vortexing and 2 min cooldown. The equivalent of […] of lysed cells was used for the immunoprecipitation of the bait proteins using FLAG-M2 agarose beads (Millipore Sigma). The beads were incubated with the cell lysates for 120 min at 4 °C with a slow rotation, followed by three washes with the yeast lysis buffer.
# Protein extracts and affinity-purified baits from yeast and human lysed cells were migrated on 10% polyacrylamide gels. The separated proteins were then transferred to nitrocellulose membranes. Validation of correct protein loading was done with ponceau staining of the membranes. Before the primary antibody incubations, membranes were blocked in 5% milk. Protein signals were detected on an Amersham Imager 600RGB (GE Healthcare) following the incubation of the membranes with the appropriate HRP-conjugated secondary antibodies and the Clarity Western ECL Substrate (Bio-Rad). The antibodies used in this study are M2-HRP (A8592, Sigma, 1/50,000), rabbit anti-FLAG (F7425, Sigma, 1/1000), PAK (SC-881, Santa Cruz, 1/200), p130cas/BCAR1 (SC-860, Santa Cruz, 1/200), actin (Cell Signaling Technology, 1/2000), anti-mouse HRP (Cell Signaling Technology, 1/10,000) and anti-rabbit HRP (Cell Signaling Technology, 1/10,000). The quantification of the WB signals was performed with the Amersham Imager 600 analysis software (GE Healthcare).
row,Molecule,Ratio Swap/WT Flag
1,B1,0.3589
2,B2,0.2499
3,B3,1
4,B4,0.8764
5,B5,0.615
6,B6,0.9802
7,B7,0.6541

# Same assay, conditions: Western blot Flag signal (2 bands), Abp1 WT, SH3-deleted or SH3-swapped; sheet FigS2A-B
row,Molecule,Flag (2 bands)
1,B1,83248
2,B2,57952
3,B3,96800
4,B4,203262
5,B5,59532
6,B6,104696
7,B7,151709

# Test system: Abp1 PPIs
# Assay: DHFR-PCA of Abp1 SH3-swapped baits (Fig. 2B-D, S2C, S2F)
# Assay type: cell-based, Saccharomyces cerevisiae
# Settings: number of interactions of Abp1 carrying the named SH3; sheet FigS2A-B
# Procedure, shortened: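 Yeast DHFR-PCA in which Abp1 baits, carrying their SH3 replaced by CRISPR–Cas9 with one of 27 yeast SH3s or human CTTN, HCLS1 or DBNL SH3s, were mated against 575 SH3-associated DHFR F[3] preys plus 40 negative controls. Four tests were run per PPI. Diploids were selected twice (48 h, 30 °C), then grown 4 days on PCA selection media.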
row,Molecule,Interactions in Abp1
1,B1,10
2,B2,99
3,B3,86
4,B4,108
5,B5,70
6,B6,91
7,B7,81
